According to PMC4072508, “Genome-Wide Prediction and Validation of Peptides That Bind Human Prosurvival Bcl-2 Proteins” (PLoS Computational Biology, 2014):
Where two headings read alike, the source gives them in different places. One block for each substance: values may come before it.

Columns and labels:
Mcl-1 [1] = biological target: T1, Mcl-1 (Homo sapiens, UniProt Q07820); conditions: cited from earlier work
T1 construct: myc-Mcl-1 SPOT array & FP; made in house
Description: Negative control mutatio ...

Mcl-1 [2] = biological target: T1, Mcl-1; test: LUMIER full-length protein interaction; assay type: binding; conditions: LUMIER results for Mcl-1, Z-score relative to Gaussian fit of the data; for z-score 1.2: experiment 1, duplicate 2; for z-score 2.1: experiment 2, duplicate 1; for z-score 2.2: experiment 2, duplicate 2
Method: (§1) The LUMIER assay was carried out as previously described with the following modifications. A stable cell line expressing receptor tagged on the N-terminus with Nanoluc luciferase was created (the prey). […] Each bait construct was transfected into the receptor-luciferase cells in a 96-well format and after 48 hours the cells were lysed and transferred to 384-well plates coated with anti-FLAG. After incubation and washing, luminescence was measured to quantify how much receptor-luciferase was captured by the bait protein. Anti-Flag ELISA signal was used to exclude bait proteins that were not expressed. The experiment was carried out two times, each in duplicate.

Bcl-xL = biological target: T2, Bcl-xL (Homo sapiens, UniProt Q07817); test: LUMIER full-length protein interaction; assay type: binding; conditions: LUMIER results for Bcl-xL; for z-score 1.1: experiment 1, duplicate 1; for z-score 1.2: experiment 1, duplicate 2; for z-score 2.1: experiment 2, duplicate 1; for z-score 2.2: experiment 2, duplicate 2
T2 construct: myc-Bcl-xL SPOT array & FP; made in house
T2 sequence (Q07817 with tags, fused parts or gaps): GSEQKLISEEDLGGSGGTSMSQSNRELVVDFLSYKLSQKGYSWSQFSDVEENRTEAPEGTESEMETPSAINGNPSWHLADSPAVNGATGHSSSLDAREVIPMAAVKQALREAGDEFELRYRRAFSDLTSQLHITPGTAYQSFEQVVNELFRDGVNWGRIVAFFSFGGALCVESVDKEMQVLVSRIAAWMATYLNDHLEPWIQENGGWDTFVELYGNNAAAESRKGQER
Method: as §1

[3] = read-out: Binder class, Mcl-1, natural BH3 peptides, interactions taken from literature
[4] = read-out: KD, Mcl-1, previously reported
[5] = read-out: Binder class, Mcl-1, S1 Bim variants, specific binding measured using yeast display, ref Dutta et al. (2010)
[6] = read-out: Binder class, Mcl-1, S2 Bim variants, ref Dutta et al. (2013)
[7] = Z-score relative to Gaussian fit of the data
[8] = Z-score of the interaction relative to the Gaussian fit of the data

T1 sequence (Q07820 with tags, fused parts or gaps): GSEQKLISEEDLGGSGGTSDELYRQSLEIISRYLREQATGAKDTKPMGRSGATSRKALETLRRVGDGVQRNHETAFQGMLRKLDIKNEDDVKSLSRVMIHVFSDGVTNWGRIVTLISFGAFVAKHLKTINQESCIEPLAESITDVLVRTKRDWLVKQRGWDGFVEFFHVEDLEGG

Substance: AAQLTAARLKALGDELHQRTMWR [Hrk]
Kd (Mcl-1 [1]; [3]): > 10 µM

Substance: AAQRYGRELRRMSDEFVDSFKKG (LWAAQRYGRELRRMSDEFVDSFKKGL) [Bad]
Kd (Mcl-1 [1]; [3]): < 1 µM
Kd (Mcl-1 [1]; [4]): > 2.5 µM

Substance: AEVQIARKLQCIADQFHRLHVQQ (HQAEVQIARKLQCIADQFHRLHVQQH) [Bmf]
Kd (Mcl-1 [1]; [3]): > 10 µM

Substance: EGEKEVEALKKSADWVSDWSSRP (VVEGEKEVEALKKSADWVSDWSSRPE) [BNIP3L]
Kd (Mcl-1 [1]; [3]): > 10 µM
Kd (Mcl-1 [1]; [4]): > 2.5 µM

Substance: IIRNIARHLAQVGDSMDRSIPPG (EDIIRNIARHLAQVGDSMDRSIPPGL) [Bid]
Kd (Mcl-1 [1]; [3]): < 1 µM

Substance: LEVECATQLRRFGDKLNFRQKLL (AELEVECATQLRRFGDKLNFRQKLLN) [Noxa]
Kd (Mcl-1 [1]; [3]): > 10 µM

Substance: MTQEVGQLLQDMGDDVYQQYRSL (GVMTQEVGQLLQDMGDDVYQQYRSLT) [Mule]
Kd (Mcl-1 [1]; [3]): > 10 µM

Substance: PEIWAAQEIRRIGDENNAYYARR
Kd (Mcl-1 [1]; [5]): < 1 µM

Substance: PEIWAAQEIRRIGDESNAYYARR
Kd (Mcl-1 [1]; [5]): < 1 µM

Substance: PEIWDAQELGRIGDEVNAYYARR
Kd (Mcl-1 [1]; [5]): < 1 µM

Substance: PEIWFAQEARRYGDEFNAYYARR
Kd (Mcl-1 [1]; [5]): > 10 µM

Substance: PEIWFAQEFSRIGDEVNAYYARR
Kd (Mcl-1 [1]; [5]): < 1 µM

Substance: PEIWFAQEIDRIGDEVNAYYARR
Kd (Mcl-1 [1]; [5]): < 1 µM

Substance: PEIWFAQEIERIGDEVNAYYARR
Kd (Mcl-1 [1]; [5]): < 1 µM

Substance: PEIWFAQEIRRDGDEFNAYYARR
Kd (Mcl-1 [1]; [5]): > 10 µM

Substance: PEIWFAQELKRFGDEANAYYARR
Kd (Mcl-1 [1]; [5]): > 10 µM

Substance: PEIWFAQELKRNGDEYNAYYARR
Kd (Mcl-1 [1]; [5]): > 10 µM

Substance: PEIWFAQELRRDGDEFNAYYARR
Kd (Mcl-1 [1]; [5]): > 10 µM

Substance: PEIWFAQELRRDGDEYNAYYARR
Kd (Mcl-1 [1]; [5]): > 10 µM

Substance: PEIWFAQELSRNGDEFNAYYARR
Kd (Mcl-1 [1]; [5]): > 10 µM

Substance: PEIWFAQELSRYGEEYNAYYARR
Kd (Mcl-1 [1]; [5]): > 10 µM

Substance: PEIWFAQEVGRIGDEINAYYARR
Kd (Mcl-1 [1]; [5]): < 1 µM

Substance: PEIWFAQEVGRIGDEVNAYYARR
Kd (Mcl-1 [1]; [5]): < 1 µM

Substance: PEIWFAQEVNRIGDEVNAYYARR
Kd (Mcl-1 [1]; [5]): > 10 µM

Substance: PEIWIAQEFQRAGDEYNAYYARR
Kd (Mcl-1 [1]; [5]): > 10 µM

Substance: PEIWIAQEFQRNGDEYNAYYARR
Kd (Mcl-1 [1]; [5]): > 10 µM

Substance: PEIWIAQEIDRIGDEFNAYYARR
Kd (Mcl-1 [1]; [5]): < 1 µM

Substance: PEIWIAQEIDRIGDETNAYYARR
Kd (Mcl-1 [1]; [5]): < 1 µM

Substance: PEIWIAQEIDRIGDEVNAYYARR
Kd (Mcl-1 [1]; [5]): < 1 µM

Substance: PEIWIAQEIDRIGNEINAYYARR
Kd (Mcl-1 [1]; [5]): < 1 µM

Substance: PEIWIAQEIGRIGDETNAYYARR
Kd (Mcl-1 [1]; [5]): < 1 µM

Substance: PEIWIAQEIGRIGNEVNAYYARR
Kd (Mcl-1 [1]; [5]): < 1 µM

Substance: PEIWIAQEIGRTGDEVNAYYARR
Kd (Mcl-1 [1]; [5]): < 1 µM

Substance: PEIWIAQEINRVGDEINAYYARR
Kd (Mcl-1 [1]; [5]): < 1 µM

Substance: PEIWIAQEIRRIGEEYNAYYARR
Kd (Mcl-1 [1]; [5]): < 1 µM

Substance: PEIWIAQELGRNGDEFNAYYARR
Kd (Mcl-1 [1]; [5]): > 10 µM

Substance: PEIWIAQELQRDGDEYNAYYARR
Kd (Mcl-1 [1]; [5]): > 10 µM

Substance: PEIWIAQELRRAGDVLNAYYARR
Kd (Mcl-1 [1]; [6]): < 1 µM

Substance: PEIWIAQEVDRIGDEVNAYYARR
Kd (Mcl-1 [1]; [5]): < 1 µM

Substance: PEIWIAQGLRRIGDTWNAYYARR
Kd (Mcl-1 [1]; [6]): < 1 µM

Substance: PEIWLAQYLRRLGDQINAYYARR
Kd (Mcl-1 [1]; [6]): < 1 µM

Substance: PEIWMAQVLRRFGDLLNAYYARR
Kd (Mcl-1 [1]; [6]): < 1 µM

Substance: PEIWVAQEFGRAGDEFNAYYARR
Kd (Mcl-1 [1]; [5]): > 10 µM

Substance: PEIWVAQEFGRNGDEFNAYYARR
Kd (Mcl-1 [1]; [5]): > 10 µM

Substance: PEIWVAQEFKRFGDEYNAYYARR
Kd (Mcl-1 [1]; [5]): > 10 µM

Substance: PEIWVAQEFKRYGDETNAYYARR
Kd (Mcl-1 [1]; [5]): > 10 µM

Substance: PEIWVAQEFQRAGDEYNAYYARR
Kd (Mcl-1 [1]; [5]): > 10 µM

Substance: PEIWVAQEFQRNGDEFNAYYARR
Kd (Mcl-1 [1]; [5]): > 10 µM

Substance: PEIWVAQEFRRAGDEFNAYYARR
Kd (Mcl-1 [1]; [5]): > 10 µM

Substance: PEIWVAQEIDRVGDEINAYYARR
Kd (Mcl-1 [1]; [5]): < 1 µM

Substance: PEIWVAQEIERIGDEVNAYYARR
Kd (Mcl-1 [1]; [5]): < 1 µM

Substance: RLAEVCAVLLRLGDELEMIRPSV (PGRLAEVCAVLLRLGDELEMIRPSVY) [Bok]
Kd (Mcl-1 [1]; [3]): < 1 µM

z-score 1.2 (Mcl-1 [2]): 0.4828
z-score 2.1 (Mcl-1 [2]): -0.9757
z-score 2.2 (Mcl-1 [2]): -1.0129
z-score 1.1 (Bcl-xL; [7]): -2.105
z-score 1.2 (Bcl-xL; [7]): -2.491
z-score 2.1 (Bcl-xL; [7]): -0.2948
z-score 2.2 (Bcl-xL; [7]): 0.7075
Substance: STK11IP (DSLLWKLAGLLRESGDVVLSGCSTLS)

z-score 1.2 (Mcl-1 [2]): -0.7174
z-score 2.1 (Mcl-1 [2]): 0.2302
z-score 2.2 (Mcl-1 [2]): -0.2533
z-score 1.1 (Bcl-xL; [7]): 3.909
z-score 1.2 (Bcl-xL; [7]): -0.1665
z-score 2.1 (Bcl-xL; [7]): 0.7598
z-score 2.2 (Bcl-xL; [7]): -0.2
Substance: TAP1 (MSILTIASAVLEFVGDGIYNNTMGHV)

z-score 1.2 (Mcl-1 [2]): 0.404
z-score 2.1 (Mcl-1 [2]): 2.487
z-score 2.2 (Mcl-1 [2]): 1.818
z-score 1.1 (Bcl-xL; [7]): -0.516
z-score 1.2 (Bcl-xL; [7]): -0.4557
z-score 2.1 (Bcl-xL; [7]): 0.7398
z-score 2.2 (Bcl-xL; [7]): 0.3954
Substance: TMEM184C (SDIRDDISEQVRHVGRTVRGHPRKKL)

z-score 1.2 (Mcl-1 [2]): -0.396
z-score 2.2 (Mcl-1 [2]): -0.9391
z-score 1.1 (Bcl-xL; [7]): 0.1125
z-score 1.2 (Bcl-xL; [7]): -0.2947
z-score 2.1 (Bcl-xL; [7]): -0.2028
z-score 2.2 (Bcl-xL; [7]): 0.228
Substance: TMEM214 (SFLSAHCASHLAWFGDSLTSLSQRLQ)

z-score 1.2 (Mcl-1 [2]): -0.2499
z-score 2.1 (Mcl-1 [2]): -0.5416
z-score 2.2 (Mcl-1 [2]): -0.2181
z-score 1.1 (Bcl-xL; [7]): 0.5842
z-score 1.2 (Bcl-xL; [7]): 0.512
z-score 2.1 (Bcl-xL; [7]): 0.1189
z-score 2.2 (Bcl-xL; [7]): 0.4568
Substance: TTC31 (DLSSTFVSLALRKVGDWPLSARREKG)

Substance: WAREIGAQLRRMADDLNAQYERR (EQWAREIGAQLRRMADDLNAQYERRR) [Puma]
Kd (Mcl-1 [1]; [3]): < 1 µM

z-score 1.2 (Mcl-1 [2]): 0.5442
z-score 2.1 (Mcl-1 [2]): 0.4209
z-score 2.2 (Mcl-1 [2]): 0.563
z-score 1.1 (Bcl-xL; [8]): 4.105
z-score 1.2 (Bcl-xL; [8]): 0.5337
z-score 2.1 (Bcl-xL; [8]): -0.08078
z-score 2.2 (Bcl-xL; [8]): 0.3897
Substance: WDR60 (GGRVKLVHSALIQLGDSLSHKGNEFW)

z-score 2.1 (Mcl-1 [2]): 1.332
z-score 2.2 (Mcl-1 [2]): 1.084
z-score 1.1 (Bcl-xL; [7]): 0.8939
z-score 1.2 (Bcl-xL; [7]): -0.01936
z-score 2.1 (Bcl-xL; [7]): 1.1339
z-score 2.2 (Bcl-xL; [7]): 1.068
Substance: WRAP53 (RKDAELLCWDLRQSGYPLWSLGREVT)

z-score 1.2 (Mcl-1 [2]): 0.3792
z-score 2.1 (Mcl-1 [2]): -0.9697
z-score 2.2 (Mcl-1 [2]): 0.1208
z-score 1.1 (Bcl-xL; [7]): 0.6872
z-score 1.2 (Bcl-xL; [7]): -1.979
z-score 2.1 (Bcl-xL; [7]): 2.441
z-score 2.2 (Bcl-xL; [7]): -0.4135
Substance: ZNF295 (ERLKGQLCDVLLIVGDQKFRAHKNVL)
